# Data as given in the supplement of paper PMC10567573.
# B1: ESRRA (parent)
# chain: SLPLQDELAFAEDLVLDEEGARAA
# B2: HESX1 (parent)
# chain: QKKDCVPLMKPHRPWADTCSSSGK
# Variants of: B1
# Assay: protein stability index of a GFP-peptide fusion (GPS, HEK-293T) (PSI 1-6); higher = more stable
# Details: c terminus: a fixed tail appended
# 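Also: lentivirally expressed fusions sorted by FACS into six bins by GFP to DsRed ratio, PSI derived from sequencing read proportions per bin multiplied by bin number.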
row,Variant,protein stability index
1,D13S,3.37
2,D13F,3.31
3,D13K,3.81
4,D13L,2.68
5,D13H,2.98
6,D13W,3.31
7,D13M,3.83
8,D13G,2.44
9,A11D,5.57
10,A11F,4.89
11,A11I,4.73
12,A11W,3.02
13,E12K,5.28
14,E12N,5.53
15,E12L,4.42
16,E12C,5.04
17,E12Y,4.2
18,E12S,5.26
19,E12I,3.8
20,E12A,5
21,R22T,4.45
22,R22V,3.69
23,R22H,3.65
24,R22K,3.12
25,R22D,4.19
26,R22F,3.24

row,Variant,protein stability index
1,A9Q,3.61
2,A9V,4.88
3,A9D,5.39
4,A9W,3.68
5,A9P,5.74
6,A9E,4.7
7,A9L,3.45
8,L8A,5.07
9,L8N,5.54
10,L8H,5.5
11,L8Y,4.77
12,L8V,5.84
13,L14Y,5.32
14,L14Q,3.5
15,L14K,4.89
16,L14A,4.45
17,L14H,5.42
18,L14M,3.29
19,L14T,5.13
20,L14E,4.62
21,L14G,5.57
22,L14C,3.46
23,L14W,4.92
24,P3C,4.78
25,P3T,4.8
26,P3F,4.6

row,Variant,protein stability index
1,P3D,4.14
2,P3G,4.7
3,F10L,2.5
4,F10W,2.96
5,F10V,3.69
6,F10N,4.03
7,F10S,3.04
8,F10A,4.18
9,F10R,3.57
10,F10I,3.63
11,V15F,5.55
12,V15W,4.85
13,V15E,5.82
14,V15T,5.28
15,V15C,4.28
16,V15N,5.68
17,V15R,5.42
18,A23E,3.66
19,A23K,2.65
20,A23R,2.83
21,A23Y,2.62
22,A23M,2.43
23,A23D,3.39
24,D17H,3.47
25,D17C,2.78
26,D17Q,3.31

row,Variant,protein stability index
1,D17R,3.13
2,D17Y,2.5
3,D17I,2.45
4,D17L,2.71
5,Q5L,3.02
6,Q5C,3.7
7,Q5K,2.79
8,Q5D,5.44
9,Q5E,5.48
10,Q5F,3.85
11,A24L,2.75
12,A24F,2.14
13,A24S,2.82
14,A24D,3.71
15,A24K,2.96
16,A24G,3.22
17,A24W,2.74
18,A24E,3.5
19,L4Q,5.64
20,L4N,5.36
21,L4S,5.39
22,L4R,5.1
23,L4I,4.43
24,E7P,5.58
25,E7L,3.66
26,E7G,5.2

row,Variant,protein stability index
1,E7H,3.94
2,L16C,3.63
3,L16A,3.83
4,L16M,3
5,L16N,4.59
6,L16V,4.15
7,L16E,5.2
8,L16T,4.72
9,E19Q,2.56
10,E19D,2.79
11,E19W,2.52
12,E19R,2.02
13,E19T,2.71
14,E19A,1.86
15,E19M,1.85
16,E18S,2.85
17,E18R,4.03
18,E18C,2.31
19,L2V,3.26
20,L2I,2.78
21,L2F,3.06
22,L2R,2.55
23,L2N,3.86
24,L2D,5.55
25,L2M,3.48
26,S1Q,3.09

row,Variant,protein stability index
1,S1Y,2.78
2,S1G,2.81
3,S1D,3.07
4,S1P,3.54
5,S1R,3.28
6,S1F,2.48
7,G20N,3.52
8,G20Y,2.44
9,G20L,3.04
10,G20T,4.05
11,G20R,3.38
12,A21E,3.38
13,A21I,2.87
14,A21S,4.05
15,A21D,3.81
16,A21C,3.01
17,A21L,3.63
18,A21Q,2.29
19,D6A,3.27
20,D6I,2.26
21,D6P,4.04
22,D6N,2.92
23,D6C,2.42

# Variants of: B2
# Assay: as above
# Details: c terminus: a fixed tail appended
row,Variant,protein stability index
1,R13I,3.66
2,S20M,3.18
3,H12C,3.42
4,H12Q,3.94
5,D4A,2.87
6,D4M,2.12
7,C19E,4.32
8,S22G,2.23
9,K10D,4.83
10,D17S,3.74
11,D17Q,3.89
12,M9G,4.27
13,M9D,4.08
14,V6A,4.1
